Data published in patent publication US20150183877A1 (Eli Lilly, published 2015).

What was measured:
[1] = target: T1, IL-17 (SEQ ID NO:80), hIL-17 with C-terminal FlagHis tag (human); experiment: SPR (Biacore 3000): antibody captured on anti-human Fc, saturating IL-17 injected; RU of IL-17 per RU captured, relative to WT IgG
T1 construct: The entry holds the IL-17 part and the Flag-His tag
Experimental: The extent of HC/LC assembly is assessed using a kinetic Biacore experiment. Briefly, kinetic surface Plasmon resonance (SPR) experiments are performed using a Biacore 3000 (GE Healthcare). IgG-TCR proteins are captured onto CM5 sensorchip surfaces with an immobilized goat anti-human IgG-Fc polyclonal antibody (Jackson ImmunoResearch, Cat. #109-005-098). The goat polyclonal antibody immobilization is achieved by injecting the protein (at 50 μg/mL, pH 5) over an NHS/EDC activated sensorchip surface followed by blocking with ethanolamine (as described by manufacturer). The IgG or IgG-TCRs are captured onto the anti-human Fc sensorchip surface by injecting 10 μL of protein at 0.1 and 0.5 mg/mL using a 2 […]. Flow rates are increased to 10 μL/min followed by secondary 30 μL injections of IL-17 (SEQ ID NO:80) at 10 and 50 nM. Following a 15 minute dissociation period, the flow rate is increased to 60 μL/min and sensorchip surfaces are regenerated using two consecutive 10 μL injections of 0.1 M glycine, pH 2.0.
The experiment measures the percent activity by relating the amount of captured IgG or IgG-TCR (based on resonance units) with the secondary response generated using a saturating level of IL-17. The percent activity of each IgG-TCR is calculated based on a comparison with the WT IgG: […]

[2] = target: T2, hEGFR-Fc (Cat. #344-ER-050, R&D systems) (human, UniProt P00533 25-645); experiment: EGFR/HER-2 sandwich ELISA: hEGFR-Fc coat, compound titrated, detection with 0.2 µg/mL hHER-2-Histag and anti-His-HRP
T2 construct: Bought reagent; not shown: Fc part of the bought fusion
Experimental: (§1) Specifically, clear 96-well round bottom high binding microtiter plates (Greiner) are coated overnight at 2-8° C. with 50 μL/well 1 μg/mL hEGFR-Fc (Cat. #344-ER-050, R&D systems) in a 50 mM Na₂CO₃ pH 9.4 buffer. The plate is washed 4× times with PBST and blocked with 100 μL/well casein buffer (Pierce) for 1 hr at 37° C. The plate is then washed 4× times with PBST and test compounds are added at 50 μL/well and 30 μg/mL […] and serially diluted 1:2 down the plate. The test compounds are incubated on the plate for 1 hr at 37° C. The plate is washed 4× times with PBST and 50 μL/well 0.2 μg/mL hHER-2-Histag (Sino Biologics) is added for 1 hr at 37° C. The plate is then washed 4× times with PBST followed by the addition of a 50 μL/well secondary anti-Histag-HRP antibody (PENTA-His-HRP, Qiagen) diluted 1:1000 in PBST. The secondary antibody is incubated for 1 hr at 37° C. The plate is then washed 4× times with PBST and 100 μL/well 1-component 3,3′,5,5′-Tetramethylbenzidine (TMB) substrate is added (KPL laboratories). After approximately 10 minutes, 100 μL/well 1% H₃PO₄ (in H₂O) is added to quench the reaction. Absorbance (450 nm) of every well in the plate is read using a SpectraMax UV plate reader (Molecular Devices).

[3] = target: T3, hHER-2-Histag (Sino Biologics) (human, UniProt P04626 23-652); experiment: EGFR/HER-2 sandwich ELISA: hEGFR-Fc coat, test compound, detection with hHER-2-Histag and anti-His-HRP
T3 construct: Bought reagent; not shown: His tag
Experimental: as §1

T1 sequence (chain, as listed by the source limits assumed): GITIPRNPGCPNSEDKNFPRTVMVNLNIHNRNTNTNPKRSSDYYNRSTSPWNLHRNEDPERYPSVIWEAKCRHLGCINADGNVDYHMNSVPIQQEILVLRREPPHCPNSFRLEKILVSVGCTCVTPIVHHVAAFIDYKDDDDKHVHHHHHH

B1: TCR2 (anti-IL-17 IgG-TCR, Cα for CH1, Cβ for CL) (antibody)
heavy: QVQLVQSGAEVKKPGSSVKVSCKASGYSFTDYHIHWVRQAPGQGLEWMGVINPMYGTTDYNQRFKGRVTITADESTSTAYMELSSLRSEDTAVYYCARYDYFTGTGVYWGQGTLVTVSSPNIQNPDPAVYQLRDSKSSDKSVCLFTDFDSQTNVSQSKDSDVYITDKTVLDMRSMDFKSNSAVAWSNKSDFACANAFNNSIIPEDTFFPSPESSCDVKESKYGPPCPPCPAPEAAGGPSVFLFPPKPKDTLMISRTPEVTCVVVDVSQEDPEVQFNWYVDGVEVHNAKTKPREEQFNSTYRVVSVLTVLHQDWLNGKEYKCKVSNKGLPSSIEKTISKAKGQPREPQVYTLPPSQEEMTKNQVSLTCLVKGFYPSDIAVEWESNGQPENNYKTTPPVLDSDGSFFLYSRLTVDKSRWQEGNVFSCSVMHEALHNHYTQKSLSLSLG
light: DIVMTQTPLSLSVTPGQPASISCRSSRSLVHSRGNTYLHWYLQKPGQSPQLLIYKVSNRFIGVPDRFSGSGSGTDFTLKISRVEAEDVGVYYCSQSTHLPFTFGQGTKLEIKEDLNKVFPPEVAVFEPSEAEISHTQKATLVCLATGFFPDHVELSWWVNGKEVHSGVSTDPQPLKEQPALNDSRYCLSSRLRVSATFWQNPRNHFRCQVQFYGLSENDEWTQDRAKPVTQIVSAEAWGRADCGFTS
notes: IgG-TCR format with IgG4PAA hinge-Fc
[1]
  Activity by kinetic Biacore (percent activity relative to WT IgG): 35%

B2: TCR8 (anti-IL-17 IgG-TCR, truncated Cα for CH1, Cβ for CL) (antibody)
heavy: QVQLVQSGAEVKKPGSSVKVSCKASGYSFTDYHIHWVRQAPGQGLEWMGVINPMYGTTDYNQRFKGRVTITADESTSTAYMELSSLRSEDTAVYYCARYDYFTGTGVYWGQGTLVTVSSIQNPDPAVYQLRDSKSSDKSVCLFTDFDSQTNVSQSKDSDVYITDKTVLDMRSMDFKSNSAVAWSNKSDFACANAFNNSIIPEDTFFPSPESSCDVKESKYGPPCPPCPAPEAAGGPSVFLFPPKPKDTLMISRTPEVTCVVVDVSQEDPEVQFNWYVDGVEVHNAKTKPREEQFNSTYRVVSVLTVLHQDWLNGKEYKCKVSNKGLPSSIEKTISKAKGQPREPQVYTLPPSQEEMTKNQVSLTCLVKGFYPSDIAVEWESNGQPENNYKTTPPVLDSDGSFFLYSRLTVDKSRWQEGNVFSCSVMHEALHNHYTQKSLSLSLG
light: DIVMTQTPLSLSVTPGQPASISCRSSRSLVHSRGNTYLHWYLQKPGQSPQLLIYKVSNRFIGVPDRFSGSGSGTDFTLKISRVEAEDVGVYYCSQSTHLPFTFGQGTKLEIKEDLNKVFPPEVAVFEPSEAEISHTQKATLVCLATGFFPDHVELSWWVNGKEVHSGVSTDPQPLKEQPALNDSRYCLSSRLRVSATFWQNPRNHFRCQVQFYGLSENDEWTQDRAKPVTQIVSAEAWGRADCGFTS
notes: as for B1
[1]
  Activity by kinetic Biacore (percent activity relative to WT IgG): 48%

B3: C-mTCRpG1 (bispecific antibody, human IgG1, kappa)
heavy: not shown
light 1: not shown
light 2: DIQMTQSPSSLSASVGDRVTITCSASSSVTYMYWYQQKPGKAPKLLIYDTSNLASGVPSRFSGSGSGTDYTFTISSLQPEDIATYYCQQWSSHIFTFGQGTKVEIKKVFPPEVAVFEPSEAEISHTQKATLVCLATGFFPDHVELSWWVNGKEVHSGVSTDPQPLKEQPALNDSRYCLSSRLRVSATFWQNPRNHFRCQVQFYGLSENDEWTQDRAKPVTQIVSAEAWGRADC
notes: Anti-EGFR (matuzumab TCR-Fab) / anti-HER-2 (pertuzumab IgG-Fab) IgG-(Fab)2, Format 1
[2]
  EC50: < 1 nM

B4: N-mTCRpG1 (bispecific antibody, human IgG1, kappa)
heavy: not shown
light 1: not shown
light 2: DIQMTQSPSSLSASVGDRVTITCSASSSVTYMYWYQQKPGKAPKLLIYDTSNLASGVPSRFSGSGSGTDYTFTISSLQPEDIATYYCQQWSSHIFTFGQGTKVEIKKVFPPEVAVFEPSEAEISHTQKATLVCLATGFFPDHVELSWWVNGKEVHSGVSTDPQPLKEQPALNDSRYCLSSRLRVSATFWQNPRNHFRCQVQFYGLSENDEWTQDRAKPVTQIVSAEAWGRADC
notes: Anti-EGFR (matuzumab TCR-Fab) / anti-HER-2 (pertuzumab IgG) IgG-(Fab)2, Format 3; also called N-mTCRpG1ds
[2]
  EC50: 2 nM

B5: mTCR-G1(-) (antibody, human IgG1)
heavy: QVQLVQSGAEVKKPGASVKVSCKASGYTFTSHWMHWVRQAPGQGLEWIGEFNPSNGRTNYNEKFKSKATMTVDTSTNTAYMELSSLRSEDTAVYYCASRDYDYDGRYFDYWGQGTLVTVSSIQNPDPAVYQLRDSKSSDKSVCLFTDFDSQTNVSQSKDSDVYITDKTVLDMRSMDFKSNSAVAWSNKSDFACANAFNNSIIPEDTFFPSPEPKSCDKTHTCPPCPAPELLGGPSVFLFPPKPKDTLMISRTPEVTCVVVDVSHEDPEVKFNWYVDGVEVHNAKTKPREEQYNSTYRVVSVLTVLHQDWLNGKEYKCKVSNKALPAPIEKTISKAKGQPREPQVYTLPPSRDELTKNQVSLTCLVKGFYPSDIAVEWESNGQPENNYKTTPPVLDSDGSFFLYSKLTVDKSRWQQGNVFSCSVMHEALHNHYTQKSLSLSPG
light: DIQMTQSPSSLSASVGDRVTITCSASSSVTYMYWYQQKPGKAPKLLIYDTSNLASGVPSRFSGSGSGTDYTFTISSLQPEDIATYYCQQWSSHIFTFGQGTKVEIKKVFPPEVAVFEPSEAEISHTQKATLVCLATGFFPDHVELSWWVNGKEVHSGVSTDPQPLKEQPALNDSRYCLSSRLRVSATFWQNPRNHFRCQVQFYGLSENDEWTQDRAKPVTQIVSAEAWGRADC
notes: Matuzumab Fv in IgG-TCR format (anti-EGFR IgG-TCR control)
[3]
  binding result: no binding (tested: 30 µg/mL (20 nM), serially diluted 1:2)

B6: anti-human IL-17 IgG4/κ antibody (antibody)
heavy: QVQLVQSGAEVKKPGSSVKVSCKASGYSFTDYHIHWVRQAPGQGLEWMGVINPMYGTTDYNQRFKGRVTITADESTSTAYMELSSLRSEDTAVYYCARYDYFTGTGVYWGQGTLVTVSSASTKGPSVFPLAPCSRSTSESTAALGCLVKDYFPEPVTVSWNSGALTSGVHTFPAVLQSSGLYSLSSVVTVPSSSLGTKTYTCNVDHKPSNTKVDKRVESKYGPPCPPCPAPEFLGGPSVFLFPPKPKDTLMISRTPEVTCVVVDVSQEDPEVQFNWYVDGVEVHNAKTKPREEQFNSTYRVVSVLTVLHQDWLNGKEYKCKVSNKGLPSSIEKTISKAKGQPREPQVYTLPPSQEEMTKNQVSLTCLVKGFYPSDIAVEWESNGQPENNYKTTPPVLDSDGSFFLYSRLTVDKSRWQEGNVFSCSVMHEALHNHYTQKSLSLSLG
light: DIVMTQTPLSLSVTPGQPASISCRSSRSLVHSRGNTYLHWYLQKPGQSPQLLIYKVSNRFIGVPDRFSGSGSGTDFTLKISRVEAEDVGVYYCSQSTHLPFTFGQGTKLEIKRTVAAPSVFIFPPSDEQLKSGTASVVCLLNNFYPREAKVQWKVDNALQSGNSQESVTEQDSKDSTYSLSSTLTLSKADYEKHKVYACEVTHQGLSSPVTKSFNRGEC
notes: Parent IgG4/kappa antibody of the IgG-TCR constructs TCR1-TCR8; also called Anti-IL17/IgG4; Anti-17 IgG4
[1]
  Activity by kinetic Biacore (percent activity relative to WT IgG): 100%

B7: TCR3 (anti-IL-17 IgG-TCR, truncated Cβ for CH1, truncated Cα for CL) (antibody)
heavy: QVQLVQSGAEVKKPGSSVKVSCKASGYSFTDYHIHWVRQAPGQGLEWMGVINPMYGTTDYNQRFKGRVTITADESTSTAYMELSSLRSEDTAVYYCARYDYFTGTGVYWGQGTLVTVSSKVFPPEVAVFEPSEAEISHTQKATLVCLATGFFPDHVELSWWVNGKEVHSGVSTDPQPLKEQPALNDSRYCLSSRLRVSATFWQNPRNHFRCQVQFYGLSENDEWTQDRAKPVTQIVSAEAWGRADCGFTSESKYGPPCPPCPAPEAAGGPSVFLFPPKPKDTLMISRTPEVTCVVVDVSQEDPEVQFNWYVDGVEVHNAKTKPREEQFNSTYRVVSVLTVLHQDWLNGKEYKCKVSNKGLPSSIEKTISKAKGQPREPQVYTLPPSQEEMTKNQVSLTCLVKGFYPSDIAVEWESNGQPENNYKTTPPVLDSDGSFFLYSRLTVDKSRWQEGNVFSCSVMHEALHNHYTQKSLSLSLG
light: DIVMTQTPLSLSVTPGQPASISCRSSRSLVHSRGNTYLHWYLQKPGQSPQLLIYKVSNRFIGVPDRFSGSGSGTDFTLKISRVEAEDVGVYYCSQSTHLPFTFGQGTKLEIKIQNPDPAVYQLRDSKSSDKSVCLFTDFDSQTNVSQSKDSDVYITDKTVLDMRSMDFKSNSAVAWSNKSDFACANAFNNSIIPEDTFFPSPESSCDVK
[1]
  Activity by kinetic Biacore (percent activity relative to WT IgG): 17%

B8: TCR4 (anti-IL-17 IgG-TCR, truncated Cα for CH1, truncated Cβ for CL) (antibody)
heavy: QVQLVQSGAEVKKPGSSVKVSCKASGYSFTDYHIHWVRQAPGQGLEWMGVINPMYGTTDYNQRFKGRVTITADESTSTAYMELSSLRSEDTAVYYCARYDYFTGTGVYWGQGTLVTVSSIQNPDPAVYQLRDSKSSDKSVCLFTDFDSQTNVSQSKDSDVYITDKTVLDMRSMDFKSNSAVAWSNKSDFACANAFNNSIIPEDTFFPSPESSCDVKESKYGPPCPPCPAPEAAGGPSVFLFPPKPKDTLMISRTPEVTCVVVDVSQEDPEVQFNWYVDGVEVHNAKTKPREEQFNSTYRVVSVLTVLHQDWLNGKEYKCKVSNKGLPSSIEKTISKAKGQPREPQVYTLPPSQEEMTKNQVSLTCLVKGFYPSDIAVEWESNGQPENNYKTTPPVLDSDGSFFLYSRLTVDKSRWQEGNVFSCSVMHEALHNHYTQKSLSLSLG
light: DIVMTQTPLSLSVTPGQPASISCRSSRSLVHSRGNTYLHWYLQKPGQSPQLLIYKVSNRFIGVPDRFSGSGSGTDFTLKISRVEAEDVGVYYCSQSTHLPFTFGQGTKLEIKKVFPPEVAVFEPSEAEISHTQKATLVCLATGFFPDHVELSWWVNGKEVHSGVSTDPQPLKEQPALNDSRYCLSSRLRVSATFWQNPRNHFRCQVQFYGLSENDEWTQDRAKPVTQIVSAEAWGRADCGFTS
notes: as for B1
[1]
  Activity by kinetic Biacore (percent activity relative to WT IgG): 54%

B9: TCR6 (anti-IL-17 IgG-TCR, Cα for CH1, truncated Cβ for CL) (antibody)
heavy: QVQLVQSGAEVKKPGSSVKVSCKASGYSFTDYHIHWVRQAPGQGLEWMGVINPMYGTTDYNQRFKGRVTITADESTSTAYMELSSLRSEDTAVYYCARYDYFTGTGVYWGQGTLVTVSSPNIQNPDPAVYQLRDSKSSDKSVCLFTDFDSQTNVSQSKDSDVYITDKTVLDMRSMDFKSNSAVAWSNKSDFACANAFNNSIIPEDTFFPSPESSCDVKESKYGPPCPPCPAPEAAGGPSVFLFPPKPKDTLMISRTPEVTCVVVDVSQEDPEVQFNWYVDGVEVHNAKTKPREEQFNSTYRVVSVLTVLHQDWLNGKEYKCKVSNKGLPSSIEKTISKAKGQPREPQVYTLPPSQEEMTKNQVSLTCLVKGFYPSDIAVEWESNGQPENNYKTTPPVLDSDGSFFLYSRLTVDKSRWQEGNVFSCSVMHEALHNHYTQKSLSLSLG
light: DIVMTQTPLSLSVTPGQPASISCRSSRSLVHSRGNTYLHWYLQKPGQSPQLLIYKVSNRFIGVPDRFSGSGSGTDFTLKISRVEAEDVGVYYCSQSTHLPFTFGQGTKLEIKKVFPPEVAVFEPSEAEISHTQKATLVCLATGFFPDHVELSWWVNGKEVHSGVSTDPQPLKEQPALNDSRYCLSSRLRVSATFWQNPRNHFRCQVQFYGLSENDEWTQDRAKPVTQIVSAEAWGRADCGFTS
notes: as for B1
[1]
  Activity by kinetic Biacore (percent activity relative to WT IgG): 35%
